Data published in patent US11485987B2, “Methods for inducing bioorthogonal reactivity” (University of Delaware, priority 2015, dated 2022).

Key:
Type in all cases: biochemical
[1] = substrate: O=C(O)CCC(=O)Nc1ccc(C2=NNC(c3ccccn3)=NN2)nc1; assay: Horseradish peroxidase (HRP) catalyzed oxidation of DHTz to tetrazine; conditions: other: HRP, peroxide-free, PBS containing EDTA (2.0 mM); pH 7.4; 25.0 °C
Method: Upon addition of horseradish peroxidase (15 nM) the UV-vis spectrum was monitored every 10 seconds. With 50% conversion after 100 seconds, complete conversion of 3a to 4a is observed after 600 seconds, as evidenced by the decrease in the absorption at 292 nm and increase at 325 nm with an isosbestic point at 303 nm. Similar spectral changes are observed when 3a is electrochemically oxidized to 4a in aqueous solution, or when the oxidation of 3a to 4a is photocatalyzed by methylene blue. […] Methylene blue was considered a particularly attractive sensitizer due to its clinical relevance, low molecular weight, low toxicity, high solubility, and an absorption spectrum (λmax 665 nm) that extends to the near IR. Further, methylene blue has previously been explored for applications in photodynamic therapy based on oxidation of indole-3-acetic acid. Rose bengal (λmax 550 nm), used in a range of biomedical applications, was also identified as an excellent sensitizer. […] Methylene blue (4 μM) also catalyzed the conversion of 3a to 4a in the presence of ambient light, with 47% conversion noted after 2 h. […] The mechanism of photooxidation more likely involves electron transfer and is the subject of ongoing study.
As a complement to these photocatalyzed reactions, the inventors observed that HRP can efficiently catalyze the oxidation of 3a in the dark at low enzyme concentration (15 nM) (FIG. 4). While HRP typically requires H2O2 as the terminal oxidant, the addition of HRP to a peroxide-free solution of 3a (30 μM) in PBS led to the rapid formation of 4a (FIG. 4, panel B). […]
Solutions (1 mL) containing 3a (30 μm) in PBS buffer were prepared in a cuvette from stock solutions. Oxidation of 3a to 4a was monitored by recording absorbance at 325 nm every 10 seconds while either hydrogen peroxide (2 mM), HRP (15 nM) or both were added (FIG. 4, panel B). […] The oxidation rate was determined by observing the conversion of 3a to 4a in the first 10 seconds after mixing in HRP (15 nM) and subtracting the background oxidation prior to the addition of HRP.

[2] = substrate: CCCCNC(=O)C1=NNC(c2ccccn2)=NN1; assay: Oxidation of DHT by APEX2, UV-Vis initial rates and kinetic parameters; conditions: pH 7.4, 25.0 °C
Method: (§1) UV-Vis and fluorescence measurements were conducted in quartz cuvettes. All reactions were conducted in phosphate buffered saline (PBS) containing 100 μM EDTA with a pH=7.4. The PBS was prepared by adding 25 mM phosphate salts (Na2HPO4 and NaH2PO4), 100 mM NaCl, 100 μM EDTA to DI water. EDTA was added to quench free metals that can oxidize DHT. The buffer was pH adjusted to 7.4 using 1 mM HCl and 1 mM NaOH. UV experiments were stirred at 25° C. in a temperature-controlled cuvette holder of the spectrophotometer. Solutions of 15 or 16 were prepared from methanol stock solutions.
(§2) 15 or 16 (60 μM) from methanol stock solutions was added to PBS containing 100 μM EDTA. After 10s, APEX2 (SEQ ID NO:1) (275 nM) was dosed in and oxidation was monitored at 325 nm for 15 and 285 nm for 16 at 60s intervals (FIG. 10B-C).
(§3) 16 (15 μM) DHT from methanol stock solutions was added to PBS containing 100 μM EDTA. After 10s, APEX2 (SEQ ID NO:1) (275 nM) or HRP (15 nM) was dosed in and oxidation was monitored at 285 nm at 10s intervals (FIG. 10D)
(§4) SOD (1 μM) was added to PBS containing 100 μM EDTA. 15 or 16 (60 μM) was added from methanol stock solutions. After 10s, APEX2 (SEQ ID NO:1) or F41A APEX2 (275 nM) was dosed in and oxidation was monitored at 325 nm for 15 and 285 nm for 16 at 60s intervals.
(§5) The initial rate of oxidation was calculated from the first 100 seconds after APEX2 (SEQ ID NO:1) or F41A APEX2 was added ([…]). In the assays where SOD was added, SOD (1 μM) was added to PBS containing 100 μM EDTA and 15 or 16 was dosed in. 10 seconds later, APEX2 (SEQ ID NO:1) or F41A APEX2 ([…]) was added and the rate of oxidation was calculated from the first 100 seconds after APEX2 (SEQ ID NO:1) or F41A APEX2 ([…]) addition. The initial rate of oxidation was adjusted to background oxidation of DHT in PBS with 100 μM EDTA. Kinetic parameters (Table 2) were determined using GraphPad's Prism 6 software from the data presented below (Table 3-4).

[3] = substrate: O=C(O)CCCC(=O)Nc1ccc(C2=NNC(c3ccccn3)=NN2)nc1; assay: as above; conditions: pH 7.4, 25.0 °C
Method: as §1, §2, §3, §4, §5

[4] = substrate: CCCCNC(=O)C1=NNC(c2ccccn2)=NN1; assay: Oxidation of DHT by F41A APEX2, UV-Vis initial rates and kinetic parameters; conditions: other: F41A APEX2 + SOD; pH 7.4; 25.0 °C
Method: as §1, §4, §5

[5] = substrate: O=C(O)CCCC(=O)Nc1ccc(C2=NNC(c3ccccn3)=NN2)nc1; assay: as above; conditions: other: F41A APEX2 + SOD; pH 7.4; 25.0 °C
Method: as §1, §4, §5

[6] = other: APEX2 (SEQ ID NO: 1) + SOD
[7] = other: APEX2 (SEQ ID NO: 1), no SOD

B1: horseradish peroxidase (HRP) (Armoracia rusticana) (protein)
chain: QLTPTFYDNSCPNVSNIVRDTIVNELRSDPRIAASILRLHFHDCFVNGCDASILLDNTTSFRTEKDAFGNANSARGFPVIDRMKAAVESACPRTVSCADLLTIAAQQSVTLAGGPSWRVPLGRRDSLQAFLDLANANLPAPFFTLPQLKDSFRNVGLNRSSDLVALSGGHTFGKNQCRFIMDRLYNFSNTGLPDPTLNTTYLQTLRGLCPLNGNLSALVDFDLRTPTIFDNKYYVNLEEQKGLIQSDQELFSSPNATDTIPLVRSFANSTQTFFNAFVEAMDRMGNITPLTGTQGQIRLNCRVVNSNS
Q: What does the source list for B1?
A: Km [1]: 100 µM; kcat [1]: 27 s⁻¹; kcat/Km [1]: 270000 M⁻¹ s⁻¹

B2: APEX2 (SEQ ID NO:1) (Glycine max; A134P/E112K/K14D/W41F) (protein)
chain: MGKSYPTVSADYQDAVEKAKKKLRGFIAEKRCAPLMLRLAFHSAGTFDKGTKTGGPFGTIKHPAELAHSANNGLDIAVRLLEPLKAEFPILSYADFYQLAGVVAVEVTGGPKVPFHPGREDKPEPPPEGRLPDPTKGSDHLRDVFGKAMGLTDQDIVALSGGHTIGAAHKERSGFEGPWTSNPLIFDNSYFTELLSGEKEGLLQLPSDKALLSDPVFRPLVDKYAADEDAFFADYAEAHQKLSELGFADA
Q: B2 was tested. Which Km [2, 6] did it give?
A: 17.29 µM

Q: What about the kcat [2, 6] of the same protein?
A: 0.115 s⁻¹

Q: And the kcat/Km [2, 6]?
A: 6662 M⁻¹ s⁻¹

Q: What about the Km [2, 7] of the same protein?
A: 22.61 µM

Q: What about the kcat [2, 7] of the same protein?
A: 0.077 s⁻¹

Q: And the kcat/Km [2, 7]?
A: 3426 M⁻¹ s⁻¹

Q: And the Km [3, 6]?
A: 41.41 µM

Q: And the kcat [3, 6]?
A: 0.247 s⁻¹

Q: And the kcat/Km [3, 6]?
A: 5956 M⁻¹ s⁻¹

Q: And the Km [3, 7]?
A: 47.56 µM

Q: And the kcat [3, 7]?
A: 0.197 s⁻¹

Q: And the kcat/Km [3, 7]?
A: 4134 M⁻¹ s⁻¹

B3: F41A APEX2 (Glycine max; A134P/E112K/K14D/W41A) (protein)
chain: MGKSYPTVSADYQDAVEKAKKKLRGFIAEKRCAPLMLRLAAHSAGTFDKGTKTGGPFGTIKHPAELAHSANNGLDIAVRLLEPLKAEFPILSYADFYQLAGVVAVEVTGGPKVPFHPGREDKPEPPPEGRLPDPTKGSDHLRDVFGKAMGLTDQDIVALSGGHTIGAAHKERSGFEGPWTSNPLIFDNSYFTELLSGEKEGLLQLPSDKALLSDPVFRPLVDKYAADEDAFFADYAEAHQKLSELGFADA
Q: Which Km [4] does the source give for B3 here?
A: 104.6 µM

Q: And the kcat [4]?
A: 0.408 s⁻¹

Q: What about the kcat/Km [4] of the same protein?
A: 3900 M⁻¹ s⁻¹

Q: And the Km [5]?
A: 263 µM

Q: What about the kcat [5] of the same protein?
A: 1.72 s⁻¹

Q: What about the kcat/Km [5] of the same protein?
A: 6533 M⁻¹ s⁻¹
